Experiments:
Assay in all cases: ELISA; affinity-based ELISA; 5 ug/ml of each dockerin-containing enzyme immobilised on a MaxiSorp plate; CBM-Coh modules applied at 0.01 ng/ml to 100 ug/ml (Fig. S4: 1 or 10 ug/ml); detected with rabbit anti-CBD
[1] = target: GH44A (GH44A-Doc), dockerin-containing glycoside hydrolase of C. saccharoperbutylacetonicum (Clostridium saccharoperbutylacetonicum N1-4 (HMT))
[2] = target: GH74A (GH74A-Doc), dockerin-containing glycoside hydrolase of C. saccharoperbutylacetonicum (Clostridium saccharoperbutylacetonicum N1-4 (HMT))
[3] = target: GH9B (GH9B-CBM3c-Doc), dockerin-containing glycoside hydrolase of C. saccharoperbutylacetonicum (Clostridium saccharoperbutylacetonicum N1-4 (HMT))
[4] = target: GH48A (GH48A-Doc), dockerin-containing glycoside hydrolase of C. saccharoperbutylacetonicum (Clostridium saccharoperbutylacetonicum N1-4 (HMT))
[5] = target: GH5B (GH5B-Doc), dockerin-containing glycoside hydrolase of C. saccharoperbutylacetonicum (Clostridium saccharoperbutylacetonicum N1-4 (HMT))

Row | Substance | pEC50 [1] | pEC50 [2] | pEC50 [3] | pEC50 [4] | pEC50 [5]
1 | X2-Coh2 of the scaffoldin ScaA, fused to a CBM cassette (domain or fragment) | 4 | 4 | 2.4 | – | –
2 | X2-Coh1 of the scaffoldin ScaA, fused to a CBM cassette (domain or fragment) | 4 | – | 0.7 | 3 | 2.5
